# T1: I53-50A trimer
# T1 construct: also called trimeric I53-50A
# T1 chain: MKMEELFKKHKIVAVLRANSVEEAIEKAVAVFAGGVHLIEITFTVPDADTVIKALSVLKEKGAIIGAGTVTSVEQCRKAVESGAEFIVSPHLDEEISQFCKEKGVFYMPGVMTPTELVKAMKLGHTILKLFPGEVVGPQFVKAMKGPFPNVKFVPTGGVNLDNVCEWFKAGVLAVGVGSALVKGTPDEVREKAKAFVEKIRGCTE
# Target: T1, I53-50A trimer
# Experiment: in vitro co-assembly into partial valency nanostructures, purified by size exclusion chromatography
binder,measurement,value
"I53-50B.4PosT1 pentamer (designed binder, Expressed and purified as in Bale et al; also called I53-50B.4PT1; I53-50B.4PosT1 pentamers) MNQHSHKDHETVRIAVVRARWHAEIVDACVSAFEAAMRDIGGDRFAVDVFDVPGAYEIPLHARTLAETGRYGAVLGTAFVVNGGIYRHEFVASAVINGMMNVQLNTGVPVLSAVLTPHNYDKSKAHTLLFLALFAVKGMEAARACVEILAAREKIAA",binding result,binds
